These results are taken from US20230374147A1 (HUMMINGBIRD BIOSCIENCE PTE, published 2023).

Read-outs that look alike come from different tables or passages of the source.

In test [1] the target is T1, human BCMA expressed on cells (human, UniProt Q02223 1-184).
T1 construct: the cell line is named under assay; also called wildtype human BCMA
T1 sequence: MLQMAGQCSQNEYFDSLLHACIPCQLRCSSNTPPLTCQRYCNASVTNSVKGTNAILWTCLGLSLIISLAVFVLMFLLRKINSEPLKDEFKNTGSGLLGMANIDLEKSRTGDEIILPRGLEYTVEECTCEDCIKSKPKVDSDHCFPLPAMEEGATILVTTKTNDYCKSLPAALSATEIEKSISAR
The test can be described thus: flow cytometry, HEK 293 cells expressing human BCMA. On the technique in general: A flow cytometer gives signals particle by particle.

For the next test, the target named is T2, BCMA Mut (human, UniProt Q02223 1-184).
T2 construct: Expressed on HEK293T cells; also called human BCMA comprising the substitutions Y13A, D15A, L17G and L18G
T2 chain: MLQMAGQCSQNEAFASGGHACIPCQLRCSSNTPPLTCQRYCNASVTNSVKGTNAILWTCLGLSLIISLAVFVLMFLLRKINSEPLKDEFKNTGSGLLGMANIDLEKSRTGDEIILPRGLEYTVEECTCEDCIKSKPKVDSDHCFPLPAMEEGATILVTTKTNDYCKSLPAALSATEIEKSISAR
The test can be described thus: flow cytometry on HEK293T cells expressing BCMA Mut.

The target in test [2] is T3, His-tagged human BCMA (Acro Biosystems, Cat. #BCA-H522y) (human, UniProt Q02223 1-54).
T3 construct: also called huBCMA; P1; not shown: His tag
T3 sequence: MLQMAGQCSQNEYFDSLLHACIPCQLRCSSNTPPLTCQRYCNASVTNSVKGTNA
In words: BLI, His-tagged human BCMA on HIS1K tip. (In general: In BLI a coated tip is dipped into the sample, and binding shifts an interference pattern.)

The target of test [3] is T3, His-tagged human BCMA (Acro Biosystems, …). In words: ELISA, coated His-tagged human BCMA. On the technique in general: In an ELISA, binding on a coated surface is turned into a signal by an enzyme label.
For test [4], the target named is T4, recombinant his-tagged human TACI (Sinobiological cat #11937-H08H) (human, UniProt O14836 1-165).
T4 construct: Bought protein; also called Human TACI-His; huTACI; not shown: His tag
T4 sequence: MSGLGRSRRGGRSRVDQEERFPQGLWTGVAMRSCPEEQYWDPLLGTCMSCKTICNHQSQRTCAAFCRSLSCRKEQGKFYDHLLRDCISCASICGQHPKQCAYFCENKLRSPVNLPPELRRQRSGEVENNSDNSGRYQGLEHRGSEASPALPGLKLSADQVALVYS
In words: ELISA, coated His-tagged human TACI.

The target in test [5] is T4, recombinant his-tagged human TACI …. The test can be described thus: ELISA, coated His-tagged human TACI. The source holds these as a separate data set.
Test [6] concerns the target T3, His-tagged human BCMA (Acro Biosystems, …). The test can be described thus: BLI, His-tagged human BCMA on HIS1K tip, no APRIL; R2 0.9915.
Test [7] has as its target T1, human BCMA expressed on cells. In words: flow cytometry, HEK293 cells stably expressing human BCMA.
Test [8] concerns the target T5, cynomolgous macaque BCMA expressed on CHOK1 cells.
T5 construct: also called cyno BCMA on cells
The test can be described thus: flow cytometry, CHOK1 cells transiently expressing cynomolgus BCMA.

For test [9], the target named is T6, His-tagged cynomolgous macaque BCMA (Acro Biosystems, BCA-C52H7) (cynomolgus macaque, UniProt Q02223 1-54 (human entry)).
T6 construct: Bought protein; also called cyno BCMA; CyBCMA; not shown: His tag
The test can be described thus: BLI, His-tagged cynomolgus BCMA on HIS1K tip.

Test [10] deals with T7, His-tagged mouse BCMA (Acro Biosystems, BCA-M52H3) (mouse, UniProt O88472 1-49).
T7 construct: Bought protein; not shown: His tag
T7 chain: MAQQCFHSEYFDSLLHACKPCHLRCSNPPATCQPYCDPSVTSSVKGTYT
The test can be described thus: BLI, His-tagged mouse BCMA on HIS1K tip.

Test [11] has as its target T1, human BCMA expressed on cells. The test can be described thus: flow cytometry, H929 cells (BCMA-expressing).
Test [12] concerns the target T3, His-tagged human BCMA (Acro Biosystems, …). In words: BLI, His-tagged human BCMA on HIS1K tip; R2 0.9915.
Test [13] has the same target. In words: competition ELISA: His-tagged human BCMA binding to coated APRIL-Fc in the presence of the antibody.
The target of test [14] is T8, human TACI expressed on cells (human, UniProt O14836 1-293).
T8 construct: also called wildtype human TACI
T8 sequence: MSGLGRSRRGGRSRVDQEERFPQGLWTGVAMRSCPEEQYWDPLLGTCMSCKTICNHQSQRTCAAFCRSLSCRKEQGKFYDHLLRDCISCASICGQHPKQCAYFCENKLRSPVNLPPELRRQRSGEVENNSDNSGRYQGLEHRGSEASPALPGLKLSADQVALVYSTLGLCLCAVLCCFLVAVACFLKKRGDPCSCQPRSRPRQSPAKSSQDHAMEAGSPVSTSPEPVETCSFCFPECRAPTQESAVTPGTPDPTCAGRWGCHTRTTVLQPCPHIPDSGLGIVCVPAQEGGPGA
In words: flow cytometry, HEK 293 cells expressing human TACI.

Test [15] concerns the target T3, His-tagged human BCMA (Acro Biosystems, …). In words: ELISA, coated His-tagged human BCMA. This is another data set of the same source.
The target of test [16] is T1, human BCMA expressed on cells. In words: flow cytometry, H929 cells (BCMA-expressing). This is another data set of the same source.
For test [17], the target named is T7, His-tagged mouse BCMA (Acro Biosystems, …). In words: BLI, His-tagged mouse BCMA on HIS1K tip; R2 0.9403.
The target of test [18] is T6, His-tagged cynomolgous macaque BCMA …. In words: BLI, His-tagged cynomolgus BCMA on HIS1K tip; R2 0.9915.
In test [19] the target is T1, human BCMA expressed on cells. In words: flow cytometry, HEK293 cells stably expressing human BCMA. The source holds these as a separate data set.
For test [20], the target named is T6, His-tagged cynomolgous macaque BCMA …. The test can be described thus: BLI, His-tagged cynomolgus BCMA on HIS1K tip; R2 0.9205.
Test [21] addresses T3, His-tagged human BCMA (Acro Biosystems, …). The test can be described thus: BLI, His-tagged human BCMA on HIS1K tip, no APRIL; R2 0.9903.
For test [22] the target is unchanged. In words: BLI, His-tagged human BCMA on HIS1K tip; R2 0.9903.
Test [23] concerns the target T7, His-tagged mouse BCMA (Acro Biosystems, …). In words: BLI, His-tagged mouse BCMA on HIS1K tip; R2 0.2621, below the filing's cut-off of 0.9.
For test [24], the target named is T4, recombinant his-tagged human TACI …. The test can be described thus: ELISA, coated His-tagged human TACI. The source holds these as a separate data set.
The target in test [25] is T5, cynomolgous macaque BCMA expressed on …. In words: flow cytometry, CHOK1 cells transiently expressing cynomolgus BCMA. This is another data set of the same source.
Test [26] addresses T3, His-tagged human BCMA (Acro Biosystems, …). The test can be described thus: BLI, His-tagged human BCMA on HIS1K tip, no APRIL; R2 0.9933.
The target of test [27] is T6, His-tagged cynomolgous macaque BCMA …. The test can be described thus: ELISA, coated His-tagged cynomolgus BCMA.
The target is the same in test [28]. The test can be described thus: BLI, His-tagged cynomolgus BCMA on HIS1K tip; R2 0.9421.
In test [29] the target is T3, His-tagged human BCMA (Acro Biosystems, …). The test can be described thus: BLI, His-tagged human BCMA on HIS1K tip; R2 0.9933.

One may read the EC50 as the midpoint of the concentration-response curve. Usually EC50 (read off the curve) stands for the concentration needed to bring the measured effect to its halfway point. The Kd is the equilibrium constant for the complex coming apart. The low end stands for higher affinity, the high end for lower affinity. What is called IC50 is the concentration at which inhibition is half-maximal.

B1: 539-SP1-C8 hIgG1 (antibody, V domains shown)
VH: EVQLQQSGPELVKPGSSVKMSCKASGYTFTNYVMHWVKQKPGQGLEWIGYILPYNDGTKYNEKFKGKATLTSDKSSSTAYMEFSVLTSEDSAVYYCARYDYEGSFDYWGQGTALTVSS
VL: DIQMTQTTSSLSASLGDRVTISCRASQDISNYLNWYQQKPDGTVKLLMCYTSRLHSGVPSRFSGSGSGTDFSLTISNLEQEDIATYFCQQGNTFPPTFGGGTKLEIKR
notes: Human-mouse chimeric antibody, human IgG1 format; also called [2]
As to B1, the EC50 was determined as 2.56 nM in test [1], 0.059 nM in [3], 0.083 nM in test [4] and 8.2 nM in [14]. The binding result with BCMA Mut is “no binding”; in test [8] it was “binds”. The “Human BCMA response” value in test [2] worked out at 2.46. The “EC50 (read off the curve)” value in test [5] was approximately 0.01 µg/mL; in test [7], approximately 0.4 µg/mL; in test [11] it was approximately 1 nM; in test [15] it was approximately 0.009 µg/mL; in [16], approximately 0.02 µg/mL. The Kd in [6] was less than 0.001 nM; in [12], less than 0.001 nM; in test [17], 29.5 nM; in test [18] it was 14.7 nM. In addition, in test [9], the “Cyno BCMA response” value amounted to 0.456. In addition, the “Mouse BCMA response” value in test [10] turned out to be 0.86. The IC50 in [13] came out at 1.17 nM.

B2: 539-SP7-F4 hIgG1 (antibody, V domains shown)
VH: EVQLQQSGPELVKPGASMKISCKASGYSFTGYIMNWVKQSHGKNLEWIGLINPYNGDSIYNQKFKGKATLTVDKSSSTAYMELFSLTSEDSTVYYCAAGEEFAYWGQGTLVTVSA
VL: DIQMTQTSSSLSASLGDRVTISCRASQDISIYLNWFQQKPDGTVKLLIYFTSRLHPGVPSRFSASGSGTDYSLTISHLEHEDIATYFCQQGNTLPRTFGGGTKVELKR
notes: Human-mouse chimeric antibody, human IgG1 format
With B2, the entries for the “EC50 (read off the curve)” value in test [19] and in test [16] were approximately 0.05 µg/mL and approximately 0.04 µg/mL, respectively. The dissociation constant Kd in test [20] was 34.1 nM; in [21], less than 0.001 nM; in test [22], less than 0.001 nM; in [23], 8.97 nM. Besides, in test [2], the “Human BCMA response” value was found to be 2.61. Further, in test [9], the “Cyno BCMA response” value came to 1.36. Also, the “Mouse BCMA response” value in test [10] came out at 0.371. Moreover, the binding result in test [24] is “no binding (tested: 10 ug/ml)”; in test [25], “binds”.

B3: 552-LN1-E9 hIgG1 (antibody, V domains shown)
VH: QIQLVQSGPELKKPGETVKISCKASGYTFTDYSIYWVKQAPGKGLKWMGWINTETGEPTYADDFKGRFAFSLETSASSAYLQINTLKNEDTATYFCSISYYYAMDYWGQGTSVTVSS
VL: DIVLTQSPASLAVSLGQRATISCRASKSVSTSGYSFLHWYQQKPGQPPKLLIYFASNLESGVPARFSGSGSGTDFTLNIHPVEEEDAATYYCQHSRELPRTFGGGTKLEIKR
notes: Human-mouse chimeric antibody, human IgG1 format; also called [6]
Regarding B3, the EC50 came to 0.65 nM in [1] and 0.081 nM in test [3]. The “EC50 (read off the curve)” value in test [19] was approximately 0.1 µg/mL; in [27] it was approximately 0.08 µg/mL; in [16], approximately 0.05 µg/mL. Further, the “Human BCMA response” value in test [2] came out at 2.76. Also, the dissociation constant (Kd) in [26] was less than 0.001 nM; in [28] it was 32.6 nM; in test [29], less than 0.001 nM. Also, in test [9], the “Cyno BCMA response” value stood at 1.8. Further, the binding result in test [24] is “no binding (tested: 10 ug/ml)”; in test [25], “binds”.
